# In patent US20140323392A1 (UNIVERSITY OF UTAH RESEARCH FOUNDATION, published 2014):
# Bridges are numbered along the chain shown (N, C = ends). [ ]: non-standard residue; d: D form.
# What was measured:
# Assay in all cases: cell-based or functional assay
# [1] = target: HIV-1 isolate CMU06 gp41 (envelope subtype E) (HIV-1 isolate CMU06)
# [2] = target: HIV-1 isolate 92UG001 gp41 (envelope subtype D) (HIV-1 isolate 92UG001)
# [3] = target: HIV-1 isolate Ba-L gp41 (envelope subtype B) (HIV-1 isolate Ba-L)
# [4] = target: HIV-1 isolate G3 gp41 (envelope subtype G) (HIV-1 isolate G3)
# [5] = target: HIV-1 isolate 93BR029 gp41 (envelope subtype F) (HIV-1 isolate 93BR029)
# [6] = target: HIV-1 isolate 93BR019 gp41 (envelope subtype BF) (HIV-1 isolate 93BR019)
# [7] = target: HIV-1 isolate 93BR020 gp41 (envelope subtype F) (HIV-1 isolate 93BR020)
# [8] = target: HIV-1 isolate IIIB gp41 (envelope subtype B) (HIV-1 isolate IIIB)
# [9] = target: HIV-1 isolate 92UG037 gp41 (envelope subtype A) (HIV-1 isolate 92UG037)
# [10] = target: HIV-1 isolate 92UG046 gp41 (envelope subtype D) (HIV-1 isolate 92UG046)
# [11] = target: HIV-1 isolate 93IN101 gp41 (envelope subtype C) (HIV-1 isolate 93IN101)
# [12] = target: HIV-1 isolate RU570 gp41 (envelope subtype G) (HIV-1 isolate RU570)
# [13] = target: HIV-1 isolate 93TH073 gp41 (envelope subtype E) (HIV-1 isolate 93TH073)
# [14] = target: HIV-1 JRFL envelope glycoprotein gp41 (N-trimer of the prehairpin intermediate) (HIV-1 strain JRFL)
# [15] = target: HIV-1 isolate JR-CSF gp41 (envelope subtype B) (HIV-1 isolate JR-CSF)
# [16] = target: HIV-1 isolate CMU02 gp41 (envelope subtype AE) (HIV-1 isolate CMU02)
# [17] = target: HIV-1 isolate 92UG029 gp41 (envelope subtype A) (HIV-1 isolate 92UG029)
# [18] = target: HIV-1 isolate 92BR025 gp41 (envelope subtype C) (HIV-1 isolate 92BR025)
binder,measurement,setting,value
"Ac-[dH][dP][dC][dD][dY][dP][dE][dW][dQ][dW][dL][dC][dE][dL]G[dK]-NH2 (disulfide 3-12 (inferred); also: trimer, crosslinking not given here) [PIE12 trimer (Table 3)]","IC50, replication competent virus on PBMC target cells",[1],380 pM
same,"IC50, replication competent virus on PBMC target cells",[2],4450 pM
same,"IC50, replication competent virus on PBMC target cells",[3],270 pM
same,"IC50, replication competent virus on PBMC target cells",[4],1210 pM
same,"IC50, replication competent virus on PBMC target cells",[5],790 pM
same,"IC50, replication competent virus on PBMC target cells",[6],4720 pM
same,"IC50, replication competent virus on PBMC target cells",[7],370 pM
same,"IC50, replication competent virus on PBMC target cells",[8],780 pM
same,"IC50, replication competent virus on PBMC target cells",[9],210 pM
same,"IC50, replication competent virus on PBMC target cells",[10],1200 pM
same,"IC50, replication competent virus on PBMC target cells",[11],380 pM
same,"IC50, replication competent virus on PBMC target cells",[12],360 pM
same,"IC50, replication competent virus on PBMC target cells",[13],840 pM
same,"IC50, replication competent virus on PBMC target cells",[14],260 pM
same,"IC50, replication competent virus on PBMC target cells",[15],80 pM
same,"IC50, replication competent virus on PBMC target cells",[16],350 pM
same,"IC50, replication competent virus on PBMC target cells",[17],690 pM
same,"IC50, replication competent virus on PBMC target cells",[18],5190 pM
